Experimental findings from US20200017877 are described below.

Holding throughout (assay): cell_activity
Data set [1] relates to btGDF83.6 right TALEN. The settings on record: pair, listed as btGDF83.6N.
Data set [2] has as its system ssTp53 right TALEN. The settings on record: pair.
The test system of data set [3] is ssGDF83.6 right TALEN. As to conditions: pair, 3/90.
Data set [4] concerns Kiss1.1a (tilapia) left TALEN. As to conditions: pair, tilapia Kiss20; range 48-91; Kiss1.1a locus.
Data set [5] concerns Kiss1.1a (tilapia) right TALEN. As to conditions: pair, tilapia Kiss20; range 48-91; Kiss1.1a locus.
For data set [6], the system named is ssAPC14.2 right TALEN. The settings on record: pair.
The test system of data set [7] is caFecB6.1 left TALEN. As to conditions: pair.
Data set [8] deals with ssRAG2.1 left TALEN. The settings on record: pair.
Data set [9] relates to ssGDF83.6 left TALEN. The settings on record: pair, 3/90.
Data set [10] deals with ssEIF4GI14.1 right TALEN. The settings on record: pair.
For data set [11], the system named is btRosa1.2 right TALEN. As to conditions: pair.
Data set [12] relates to ssLDLR2.1 right TALEN. The settings on record: pair LDLRE2.1, pig male fibroblasts.
Data set [13] concerns ssSRY3.2 left TALEN. As to conditions: pair.
Data set [14] has as its system caFecB6.1 right TALEN. The settings on record: pair.
The test system of data set [15] is ssDAZL3.1 right TALEN. The settings on record: pair.
The subject of data set [16] is ssSRY3.2 right TALEN. As to conditions: pair.
For data set [17], the system named is ssRAG2.1 right TALEN. As to conditions: pair.
In data set [18] the test system is btACAN12 right TALEN. The settings on record: pair, cattle fibroblasts.
For data set [19], the system named is btACAN12 left TALEN. As to conditions: pair, cattle fibroblasts.
Data set [20] deals with ssEIF4GI14.1 left TALEN. The settings on record: pair.
For data set [21], the system named is ssLDLR2.1 left TALEN. As to conditions: pair LDLRE2.1, pig male fibroblasts.
The test system of data set [22] is ssP65.8 left TALEN. As to conditions: pair.
Data set [23] concerns btRosa1.2 left TALEN. The settings on record: pair.
Data set [24] relates to btGDF83.1 right TALEN. The settings on record: pair, cattle fibroblasts.
Data set [25] deals with ssP65.8 right TALEN. As to conditions: pair.
In data set [26] the test system is caCLPG1.1 left TALEN. As to conditions: pair caCLPG1.1.
Data set [27] relates to ssDMDE7.1 left TALEN. As to conditions: pair, pig fibroblasts.
Data set [28] concerns ssDMDE7.1 right TALEN. As to conditions: pair, pig fibroblasts.
The test system of data set [29] is ssKissR3.2 left TALEN. As to conditions: pair.
In data set [30] the test system is btGDF83.6-G left TALEN. The settings on record: pair, listed as btGDF83.6N.
Data set [31] relates to caCLPG1.1 right TALEN. As to conditions: pair; 0/14 colonies confirmed (Table 6).
For data set [32], the system named is ssAPC14.2 left TALEN. The settings on record: pair.
Data set [33] deals with ssDAZL3.1 left TALEN. As to conditions: pair.
In data set [34] the test system is ssTp53 left TALEN. The settings on record: pair.
Data set [35] relates to btGDF83.1 left TALEN. As to conditions: pair, cattle fibroblasts.
Data set [36] relates to ssDMDE6 left TALEN. The settings on record: pair, pig fibroblasts.
The subject of data set [37] is ssDMDE6 right TALEN. The settings on record: pair, pig fibroblasts.
The subject of data set [38] is ssKissR3.2 right TALEN. As to conditions: pair.

In data set [1], “AAAAGTATCCTCAT (double strand) [GDF83.6 right half-site (sense strand)]” showed an activity of 18 % HDR day 3.

Regarding “AAGTCAGAGTACATG (double strand) [Tp53 right half-site (sense strand)]”, in data set [2], the activity amounted to 22 % HDR day 3.

“ACAAAAATACCCTCAC (double strand) [ssGDF83.6 right half-site (sense strand)]” yielded an activity (% HDR+ colonies) in [3] of 3.

The sequence “ACAACCCTCTCAGCCTT (double strand) [Kiss1.1a left half-site]” gave an activity (% mosaic somatic mutation) in data set [4] of 91.

“ACAATGGCTACATTTAC (double strand) [Kiss1.1a right half-site (sense strand)]”: the activity (% mosaic somatic mutation) in [5] came to 91.

Sequence “ACAGAAATTCTGGGTC (double strand) [APC14.2 right half-site (sense strand)]” yielded an activity in [6] of 48 % HDR day 3.

As to “ACAGAGGAGGCCAGCTGGTT (double strand) [FecB6.1 left half-site]”, in data set [7], the activity came to 17 % HDR day 3.

Turning to “ACCTTCCTCCTCTCCGCT (double strand) [RAG2.1 left half-site]”, in [8], the activity came to 47 % HDR day 3.

Regarding “ACTGCTCTGGAGAGT (double strand) [ssGDF83.6 left half-site]”, the activity (% HDR+ colonies) in data set [9] came to 3.

In turn, “AGCAACCGTGGGCCCCCA (double strand) [EIF4GI14.1 right half-site (sense strand)]” registered an activity in [10] of 52 % HDR day 3.

As to “AGGTAGGGTGGAGAGAG (double strand) [Rosa1.2 right half-site (sense strand)]”, the activity in data set [11] stood at 45 % HDR day 3.

In [12], “AGTGCAAGGACGGGTCCG (double strand) [LDLR2.1 right half-site (sense strand)]” had an activity (% modified day 3) of 19.

For the sequence “ATACATTTTACACACATAT (double strand) [SRY3.2 left half-site]”, in [13], the activity came out at 30 % HDR day 3.

The sequence “ATATCAGACGGTGTTGATG (double strand) [FecB6.1 right half-site (sense strand)]” returned an activity in data set [14] of 17 % HDR day 3.

The sequence “ATATGGTTCAGTAAAAG (double strand) [DAZL3.1 right half-site (sense strand)]” registered an activity in data set [15] of 25 % HDR day 3.

“ATTAATGGCCTGAACCT (double strand) [SRY3.2 right half-site (sense strand)]” came in with an activity in [16] of 30 % HDR day 3.

Sequence “ATTCAAAAGCAGCTTAG (double strand) [RAG2.1 right half-site (sense strand)]” registered an activity in data set [17] of 47 % HDR day 3.

As to “CCCTCTTCCTTTCCTCCAGGGATCCCTCCTACATGGCCTCCCACTGGAGAAGCAACAGAGGAGCACACAGA (double strand) [ACAN12 target]”, the activity (% modified day 3) in data set [18] and in data set [19] was 29 throughout.

“CCGTCCTTTGCCAACCTT (double strand) [EIF4GI14.1 left half-site]” displayed an activity in [20] of 52 % HDR day 3.

In [21], “CTCCTACAAGTGGATTT (double strand) [LDLR2.1 left half-site]” returned an activity (% modified day 3) of 19.

Regarding “CTCCTCCATTGCGGA (double strand) [P65.8 left half-site]”, the activity in [22] was found to be 18 % HDR day 3.

“CTCGCATTGCCCACT (double strand) [Rosa1.2 left half-site]” yielded an activity in [23] of 45 % HDR day 3.

In the case of “CTCTAACTGTGGATTTTGA (double strand) [GDF83.1 right half-site (sense strand)]”, in [24], the activity (% modified day 3) stood at 17.

In [25], “CTTCTGAGTCAGATC (double strand) [P65.8 right half-site (sense strand)]” showed an activity of 18 % HDR day 3.

“GAGAGCGCAGGAATCCAGG (double strand) [CLPG1.1 left half-site]”: the activity in data set [26] came to 4 % HDR day 3.

Turning to “GCCACACAACGACTGGAACATGCATTCAACATCGCCAAGTATCAGTTAGGCATAGAGAAACTACTGGATCCTGAAGGTT (double strand) [DMD exon 7 target]”, the activity (% modified day 3) in data set [27] and in data set [28] was 27 throughout.

Take “GCTCTACTCTACCCC (double strand) [KissR3.2 left half-site]”: the activity in [29] was determined as 53 % HDR day 3.

“GCTCTGGAGAATGT (double strand) [GDF83.6-G left half-site]” yielded an activity in data set [30] of 18 % HDR day 3.

For the sequence “GCTGGGACCACCTGTCAG (double strand) [CLPG1.1 right half-site (sense strand)]”, the activity in data set [31] came out at 4 % HDR day 3.

As for “GGAAGAAGTATCAGCCAT (double strand) [APC14.2 left half-site]”, in data set [32], the activity was 48 % HDR day 3.

“GGATGAAACCGAAATT (double strand) [DAZL3.1 left half-site]” showed an activity in data set [33] of 25 % HDR day 3.

The sequence “GGCACCCGTGTCCGCGC (double strand) [Tp53 left half-site]” gave an activity in [34] of 22 % HDR day 3.

Turning to “GTGATGAACACTCCACAGAATCT (double strand) [GDF83.1 left half-site]”, the activity (% modified day 3) in [35] is 17.

Turning to “TCTATACCTAGGTCAAAAATGTAATGAAGAAAGTATCAGTTAGGCATAGAGAAACTACTGGA (double strand) [DMD exon 6 target]”, the activity (% modified day 3) in [36] and in data set [37] was 25 in each case.

“TGGGCGACTTCATGTGC (double strand) [KissR3.2 right half-site (sense strand)]”: the activity in [38] was 53 % HDR day 3.
